This is an account of results in the nanobody polyreactivity screen of Harvey et al. (2022).

A short description of this data set: yeast display, Sf9 membrane polyspecificity reagent, FACS + sequencing; frameworks hold sequencing errors. Put shortly: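 A synthetic nanobody library was expressed on Saccharomyces cerevisiae BJ5465 by galactose induction for 36–48 hours. The library was stained for 1 hour at 4 °C with 10% biotinylated, detergent-solubilized Sf9 membrane reagent and enriched with streptavidin microbeads before FACS. Low and high (top ~1%) gates were set on anti-HA fluorescence for expression and streptavidin fluorescence for reagent binding, and each polyreactivity label reflects the gate of origin.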
For “QVQLVESGGGLVQAGGSLRLSCAASGSIFARYAMGWYRQAPGKERELVAAITSGGITNYADSVKGRFTISRDNAKNTVYLQKNSLKPEDTAVYYCAARRSGRVRYDYWGQGTQVTVSS”, the “polyreactivity (PSR sort gate)” value is given as “high polyreactivity”.

“QVQLVESGGGLVQAGGSLRLSCAASGSIFARYAMGWYRQAPGKERELVAAITYSGGSTYYADSVKGRFTISRYNAKNTVYLQMNSLKPEDTAVYYCALRSGYGRWYPYDYWGQGTQVTVSS”: the “polyreactivity (PSR sort gate)” value is “high polyreactivity”.

For the sequence “QVQLVESGGGLVQAGGSLRLSCAASGSIFASNAMGWYRQAPGKEREFVAAIYWSGTRTYYADSVKGRFTISRDNAKNTVYLQLKSLKPEDTAVYYCAALTVLRNDYWGQGTQVSVSS”, the “polyreactivity (PSR sort gate)” value is given as “low polyreactivity”.

For “QVQLVESGGGLVQAGGSLRLSCAASGSIFASNAMGWYRQAPGKERELVAAIDDDGSTDYADSVKGRFTISRDNAKNTVYLQMNSLKPEDTAVYYCAVVTFWWGWTKYRGGFYWGQGTQVTVSS”, the “polyreactivity (PSR sort gate)” value was “low polyreactivity”.

As to “QVQLVESGGGLVQAGGSLRLSCAASGSIFASNAMGWYRQAPGKQWELVAAINSGTRTKYADSVKGRFTISRDNAKNTVYLQMNSRKPEDTAVYYCAARFKGERGPAHYYWGQGTQVTVSS”, the “polyreactivity (PSR sort gate)” value was “high polyreactivity”.

For the sequence “QVQLVESGGGLVQAGGSLRLSCAASGSIFATNAMGWYRQAPGKERELGASSSSGGGSTYYADSVKGRFTISRDNAKNTVYLQLNSLKPEDTADSYCARRIGPGSRPSWLETWRYPYDYWGQGTQVTVSS”, the “polyreactivity (PSR sort gate)” value is listed as “low polyreactivity”.

“QVQLVESGGGLVQAGGSLRLSCAASGSIFATYAMGWYRQAPGKERELVAAISRSGGSTNYADSVKGRFTISRDNAKNTVYLQMNSLKPEDTAVYYCAAVRPHWYGQGWALYWFEYWGQGTQVTVSS”: the “polyreactivity (PSR sort gate)” value was “low polyreactivity”.

In the case of “QVQLVESGGGLVQAGGSLRLSCAASGSIFATYAMGWYRQAPGKERELVADISWNGGSTYYADSVKGRFTISRDNAKNTVYLQMNSLKPEDTAVYYCAVGYWGRFGFRGYGYWGQGTQVTVSS”, the “polyreactivity (PSR sort gate)” value is recorded as “low polyreactivity”.

Regarding “QVQLVESGGGLVQAGGSLRLSCAASGSIFAVNAMGWYRQAPGKERELVAAISFGGGDTYYADSVKGRFTISRDNAKNTVYLQMNSLKPEDTAVYYCAADVITRGVKYLGQVAYEYWGQGTQVTVSS”, the “polyreactivity (PSR sort gate)” value is “low polyreactivity”.

Turning to “QVQLVESGGGLVQAGGSLRLSCAASGSIFAVNAMGWYRQAPGKERELVAAISWRDTGTYYADSVKGRFTISRDNAKNTVYLQMNSLKPEDTAVYYCAADAQVNPYYPDEYWGQGTQVTVSS”, the “polyreactivity (PSR sort gate)” value was “low polyreactivity”.

For the sequence “QVQLVESGGGLVQAGGSLRLSCAASGSIFAVYAMGRYRPAPGKERELVAASSTDYADSVKGRVTISRDNAKNTVYLQMNSLKPEDTAVYYCAKVGFGIPGGFYYWGHGTQVTVSS”, the “polyreactivity (PSR sort gate)” value was “low polyreactivity”.

As to “QVQLVESGGGLVQAGGSLRLSCAASGSIFAVYAMGWYRQAPGNERELVAVITRSGGSTYYADSVKGRFTISRDNAKNTVYLQMNSLKPEDTAVYYCAARTGYGYTRYEYWGQGTQVTVSS”, the “polyreactivity (PSR sort gate)” value is given as “high polyreactivity”.

Take “QVQLVESGGGLVQAGGSLRLSCAASGSIFAWYAMGWYRQAPGKERELVATITWSGGSTYYADSVKGRFTITRDNAKNTVYLQINSLKPEDTAVYYCAAEVVGIWYDLWYQGDYWGQGTQVTVSS”: the “polyreactivity (PSR sort gate)” value was “low polyreactivity”.

Regarding “QVQLVESGGGLVQAGGSLRLSCAASGSIFAYNAMGWYRQAPGKEREFVAAISLSGGRTYYADSVKGRFTISRDNAKNTVYLQMNSLKPEDTAVYYCATDGIRLTRHRDYDYWGQGTQVTVSS”, the “polyreactivity (PSR sort gate)” value is reported as “low polyreactivity”.

Regarding “QVQLVESGGGLVQAGGSLRLSCAASGSIFAYNAMGWYRQAPGKEREFVAAISQCGGRTYYADSVKGRFTISRDNAKTTVYLQMNSLKPEDTAVYYCATDGIRLTRHRDYDYWGQGTQVTVSS”, the “polyreactivity (PSR sort gate)” value is given as “low polyreactivity”.

Take “QVQLVESGGGLVQAGGSLRLSCAASGSIFAYNTMGWYRQAPGKERELVAAITGRAGSTYYADSVKGRFTISRDNAKNTVYLQMNSLKPEDTAVYYCNAPTWVRGGYDYWGQGTQVTVSS”: the “polyreactivity (PSR sort gate)” value is recorded as “high polyreactivity”.

Consider “QVQLVESGGGLVQAGGSLRLSCAASGSIFAYNVMGWYRQAPGKEREFVAAISSGGRTTYADSVKGPFTISRDNAKNTVYLQMNSLKAEDTAVYYFNAYFLVHYRRLRPYEYWGQGTQVTVSS”, for which the “polyreactivity (PSR sort gate)” value is listed as “low polyreactivity”.

For “QVQLVESGGGLVQAGGSLRLSCAASGSIFAYYAMGRNRQAPGKERELVAAITFSGVSTYYADSVKGRFTISRDNAKNTVYLQMNILKPEDTAVYYCAADPYQNYWWWYDYWGQGTQVTVSS”, the “polyreactivity (PSR sort gate)” value was “low polyreactivity”.

On to “QVQLVESGGGLVQAGGSLRLSCAASGSIFAYYAMGWYRQAPGKERELVAAISRRAGTTYYADSVKGRFTISRDNAKNTVYLQMNSLKPEDTAVYYCAKVSSVWYPRVDYWGQGTQVTVSS”, for which the “polyreactivity (PSR sort gate)” value was “low polyreactivity”.

As for “QVQLVESGGGLVQAGGSLRLSCAASGSIFAYYAMGWYRQAPGKERELVAAISRSGVSTYYADSVKGRFTISRDNAKNTVYLQMNSLKPEDTAVYYCAARWRSGFTSGDYWGQGTQVTVSS”, the “polyreactivity (PSR sort gate)” value was “low polyreactivity”.

For “QVQLVESGGGLVQAGGSLRLSCAASGSIFAYYAMGWYRQPPGKERELVAAISYSVDGTYYADSVKGRFTISRDNAYNTVYLQMNSLKPEDTAVYYCATQIYPLDFYQGDWNDYWGQGTQVTVSS”, the “polyreactivity (PSR sort gate)” value is reported as “low polyreactivity”.

“QVQLVESGGGLVQAGGSLRLSCAASGSIFAYYTMGWSRQAPGKERELVAAITSGGSTNYADSVKGRFTISRDNAKNTVYLQMNSLKPEDTAVYYCAVQGSRYSYRYGYRFRTMDYWGQGTQVTVSS”: the “polyreactivity (PSR sort gate)” value was “high polyreactivity”.

On to “QVQLVESGGGLVQAGGSLRLSCAASGSIFAYYTMGWSRQAPGKERELVATISSRGGSTNYADSVKGRFTISRDNAKNTVYLQMNSLKPEDTAVYYCNTAGAADRRRAYDHDYWGQGTQVTVSS”, for which the “polyreactivity (PSR sort gate)” value is given as “high polyreactivity”.

As to “QVQLVESGGGLVQAGGSLRLSCAASGSIFDDYAMGWSRQAPGKERELVAASSGGVSTNYADSVKGRFTISRDNAKNTVYLQMNSLKPEDTAVYYCNADYAGAYIHDYWGKGTQVTVSS”, the “polyreactivity (PSR sort gate)” value is reported as “low polyreactivity”.

Regarding “QVQLVESGGGLVQAGGSLRLSCAASGSIFDDYAMGWYRQAPGKERELVAAISWSGGRTYYADSVKGRFTISRDNAKTTVYLQMNSLKPEDTAVYDCAATTGVRSRRYYYWGQGTQVTVSS”, the “polyreactivity (PSR sort gate)” value is on record as “low polyreactivity”.

With “QVQLVESGGGLVQAGGSLRLSCAASGSIFDDYAMGWYRQAPGKERELVAAITTGGGRTYYADSVKGRFTISRDNAKNTVYLQMNSLKPEDTAVYYCNAKAVRGYGTWRDGSISYGMDYWGQGTQVTVSS”, the “polyreactivity (PSR sort gate)” value is “high polyreactivity”.

With “QVQLVESGGGLVQAGGSLRLSCAASGSIFDDYAMGWYRQAPGKERELVAAMSWSGGRTYYADSVKGRFTISRDYAKNTVYLQMNSLNPEDTAVYYCAATTGVRSRRYYYWGQGTLVTVSS”, the “polyreactivity (PSR sort gate)” value was “low polyreactivity”.

Take “QVQLVESGGGLVQAGGSLRLSCAASGSIFDDYAMGWYRQAPGNERELVAAITSGGSTYYADSVKGRFTISRDNAKNTVYLQMNSLKPEDTAVYYWAAPENKSDEYDYWGQGTQVTVSS”: the “polyreactivity (PSR sort gate)” value is “low polyreactivity”.

On to “QVQLVESGGGLVQAGGSLRLSCAASGSIFDENAMGWYRQAPGKERELVAAITGSGVRTYYADSVKGRFTISRDNAKNTVYLQMNSLKPEDTAVYYCNRVKSGSYKFGYWGQGTQVTVSS”, for which the “polyreactivity (PSR sort gate)” value is “high polyreactivity”.

Consider “QVQLVESGGGLVQAGGSLRLSCAASGSIFDFYAMGWYRQAPGKERELVAAISWSGGNTYYADSVKGRFTISRDNAKNTVYLQMNSLKPEDTAVYYCNRGSIWRLLTGDFDYWGQGTQVTVSS”, for which the “polyreactivity (PSR sort gate)” value is recorded as “low polyreactivity”.

As for “QVQLVESGGGLVQAGGSLRLSCAASGSIFDGNAMGWYRKATGKERELVAAITNSGGSTYYADSVNGRFTISPENAMNSVYLQKNSLKPEDTAVYYCNALPFAWRRYRWLRTMYYWGQGTQVTVSS”, the “polyreactivity (PSR sort gate)” value was “low polyreactivity”.

On to “QVQLVESGGGLVQAGGSLRLSCAASGSIFDGNGMGWSRQAPGKERELVASISGDGSTNYADSVKGRFTISRDNAKNTVYLQMNSLKPEDTAVYYCATDDPLSQINEQGMDYWGQGTQVTVSS”, for which the “polyreactivity (PSR sort gate)” value is recorded as “low polyreactivity”.

On to “QVQLVESGGGLVQAGGSLRLSCAASGSIFDGYGMGWSRQAPGKERELVAGITSGGSTYYADSVKGRFTISRDNAKNTVYLQMNSLKPEDTAVYYCATVVRYSNARGDYWGQGTQVTVSS”, for which the “polyreactivity (PSR sort gate)” value is listed as “low polyreactivity”.

On to “QVQLVESGGGLVQAGGSLRLSCAASGSIFDIYAMGWYRQAPGKERELVAAISLSAGSTYYADSVKGRFTISRDNAKNTVYLQMNSLKPEDTAVYYCAKDFFEHSPVSHTYSSSKYDYWGQGTQVTVSS”, for which the “polyreactivity (PSR sort gate)” value is “low polyreactivity”.

For “QVQLVESGGGLVQAGGSLRLSCAASGSIFDIYGMGWYRQAPGKERELVASISGGAGSTNYADSVKGRFTISRDTAKNTVYLQMNWLKPEDTAVYYCAAEVYVPDYFQHKFDVEYEYWGQGTQVTVSS”, the “polyreactivity (PSR sort gate)” value is recorded as “low polyreactivity”.

For the sequence “QVQLVESGGGLVQAGGSLRLSCAASGSIFDLYAMGWYRQAPGKERELVAGISYSGGSTYYADSVKGRFTISRDNAKNTVYLQMNSLKPEDTAVYHCADDGGWRYHPFSSLFDYWGQGTQVTVSS”, the “polyreactivity (PSR sort gate)” value is recorded as “low polyreactivity”.

Take “QVQLVESGGGLVQAGGSLRLSCAASGSIFDNAMGWYRQAPGKERELVASIDQSGGSTYYADSVMGRFTISRDNAKNTVYLQMNSLKPEDTAVYYCAADSFTGYPYEMDYWGQGTQVTVSS”: the “polyreactivity (PSR sort gate)” value is listed as “low polyreactivity”.

On to “QVQLVESGGGLVQAGGSLRLSCAASGSIFDNNAMGWYRQSPGKEREFVAAISWIGGSTSYADSVKGRFTISSDNAKNTVYLQMNSLKPEDTAVYYCNSLRYYPYGLPIYDYWGQGTQVTVSS”, for which the “polyreactivity (PSR sort gate)” value is “low polyreactivity”.

Turning to “QVQLVESGGGLVQAGGSLRLSCAASGSIFDNYALGWYRQAPGKERELVAAISWNGGDTTYADSVKGRFTISRDNAKNTVYLQMNSLKPEDTAVYYCAADLGYWVADFYWGQGTQVTVSS”, the “polyreactivity (PSR sort gate)” value is “high polyreactivity”.

For the sequence “QVQLVESGGGLVQAGGSLRLSCAASGSIFDPYAKGWYRQAPGKEREFVAAITGSGGSTSYADSVKGRFTISRDNAKNTVYLQMNSLKPEDTAVYYCAARRTVEWGQGTQVTVSS”, the “polyreactivity (PSR sort gate)” value is recorded as “high polyreactivity”.
